# Reference: publication PMC8410842, “Heimdallarchaea encodes profilin with eukaryotic-like actin regulation and polyproline binding” (Communications Biology, 2021)
# Read-outs that look alike come from different tables or passages of the source.
# B1: polyproline from VASP (…) (peptide)
# peptide: PPPAPPLPAAQ
# B2: polyproline motif of VASP (…) (peptide)
# peptide: GAGGGPPPAPPLPAAQ
# Assays:
# ΔN-heimProfilin = target: T1, ΔN-heimProfilin (Candidatus Heimdallarchaeota archaeon LC_3, UniProt A0A1Q9NL85); assay: NMR 1H-15N TROSY-HSQC titration; assay type: binding; conditions: 25 mM Tris-HCl pH 7.5, 50 mM NaCl, 5% glycerol, 298 K; acyl chains not given
# T1 construct: gene HeimC3_27980; residues 1-23 (N-terminal extension) deleted; E. coli Rosetta DE3; His6-SUMO tag cleaved with Ulp1; 15N labelled; PDB 6YRR is the full-length parent
# [1] = target: both the full-length protein and ΔN-thorProfilin; assay: NMR titration; 1H-15N TROSY-HSQC; fixed thorProfilin or ΔN-thorProfilin (200 μM), increasing polyproline … (0, 5, 7 mM in the legend); 25 mM Tris-HCl pH 6.8, 150 mM NaCl; KD from fits of chemical shifts of a few residues
# [2] = target: both the full-length protein and ΔN-thorProfilin; assay: as above; remark: listed apart in the source
# [3] = target: ΔN-heimProfilin (Candidatus Heimdallarchaeota archaeon LC_3); assay: ITC; profilin in the cell (approx. 0.1-0.5 mM), 20 injections of 1.0-14 mM polyproline (VASP); 50 mM Na3PO4 pH 7.5, 50 mM NaCl; 25 °C; triplicates
# [4] = target: Heimdallarchaeota LC3 profilin (heimProfilin) (Candidatus Heimdallarchaeota archaeon LC_3); assay: as above
molecule,measurement,setting,value
PIP2,affinity,ΔN-heimProfilin,~ 0.5–1 ± 0.3 mM
B1,Kd,[1],250 to 500 µM
same,Kd,[2],200 to 500 µM
B2,Kd,[3],300 µM
same,Kd,[4],3300 µM
